Assay results taken from patent US9896489B2, “Family of synthetic polynucleotide-binding peptides and uses thereof” (Eastern Virginia Medical School, priority 2012, dated 2018).

B1: Purα: sequence-specific single-stranded DNA-binding protein; GST-tagged, purified from bacteria in the EMSA (protein)
chain: MADRDSGSEQGGAALGSGGSLGHPGSGSGSGGGGGGGGGGGGSGGGGGGAPGGLQHETQELASKRVDIQNKRFYLDVKQNAKGRFLKIAEVGAGGNKSRLTLSMSVAVEFRDYLGDFIEHYAQLGPSQPPDLAQAQDEPRRALKSEFLVRENRKYYMDLKENQRGRFLRIRQTVNRGPGLGSTQGQTIALPAQGLIEFRDALAKLIDDYGVEEEPAELPEGTSLTVDNKRFFFDVGSNKYGVFMRVSEVKPTYRNSITVPYKVWAKFGHTFCKYSEEMKKIQEKQREKRAACEQLHQQQQQQQEETAAATLLLQGEEEGEED
modifications: left off: a dimerising Fc or GST
notes: GST-tagged, purified from bacteria in the EMSA
B2: Gst-Purα: GST fusion of Purα expressed in bacteria, bound to glutathione-agarose beads (protein)
chain: B1 chain
modifications: left off: a dimerising Fc or GST
B3: Purβ: Pur family protein, GST-tagged, purified from bacterial lysate (protein, UniProt Q96QR8 2-312, looked up)
Transcriptional regulator …: ADGDSGSERGGGGGPCGFQPASRGGGEQETQELASKRLDIQNKRFYLDVKQNAKGRFLKIAEVGAGGSKSRLTLSMAVAAEFRDSLGDFIEHYAQLGPSSPEQLAAGAEEGGGPRRALKSEFLVRENRKYYLDLKENQRGRFLRIRQTVNRGGGGFGAGPGPGGLQSGQTIALPAQGLIEFRDALAKLIDDYGGEDDELAGGPGGGAGGPGGGLYGELPEGTSITVDSKRFFFDVGCNKYGVFLRVSEVKPSYRNAITVPFKAWGKFGGAFCRYADEMKEIQERQRDKLYERRGGGSGGGEESEGEEVDED
modifications: GST tag
notes: Pur family protein, GST-tagged, purified from bacterial lysate

Experiments:
[1] = tested on: ras-transformed NIH3T3 cells; experiment: Anchorage independent growth of ras-transformed NIH3T3 cells; assay type: cell-based; details: pBABE and pBKPurα transfected, puromycin selected
Text: Purα also antagonizes colony formation and anchorage-independent growth related to ras-transformation of NIH3T3 cells. Ras-transformed cells were transfected with pBABE (empty vector) and either pBK (empty vector) or pBKPurα expression construct and selected for puromycin resistance. Referring to FIG. 4, panel A (pBABE) and panel B (pBABE+pBK) show anchorage independent cell growth.

[2] = tested on: ALS ssDNA (GGGGCC hexanucleotide repeat expanded at C9ORF72); experiment: Electrophoretic mobility shift assay with ALS ssDNA; assay type: binding; details: for binding of ALS repeat (qualitative): DNA concentration courses
Method: Infrared oligonucleotides representing a GGGGCC hexanucleotide repeat expanded at C9ORF72 in ALS patients were custom ordered and are referred to as ALS ssDNA. 4% polyacrylamide gel electrophoresis was performed using IR-labeled oligonucleotides and imaged using the Li-Cor Odyssey IR imaging instrumentation and software.
Electrophoretic Mobility Shift Assay-Various combinations of Purα, Purβ, TZIP, and IR-labeled oligonucleotides were prepared in the 5× Johnson binding buffer (Bergemann, Andrew D and Johnson, Edward M (1992), The HeLa Pur Factor Binds Single-Stranded DNA at a Specific Element Conserved in Gene Flanking Regions and Origins of DNA Replication. Molecular and Cellular Biology, vol 12:3 (1257-1265), incorporated by reference herein in its entirety), adjusted to 5 mM DTT, 5 mM EDTA, and 0.5% Tween 20. 4% polyacrylamide gel electrophoresis was performed on samples and imaged with the Li-Cor Odyssey instrumentation and software. Densitometry was performed on the DNA concentration course experiments using the Li-Cor Odyssey software.
A Kd value obtained for Purβ was complex and not readily interpretable.

[3] = tested on: ras-transformed and non-transformed NIH3T3 cells; experiment: Cell cycle progression (FACS DNA content) in cells stably transfected to over-express Purα; assay type: cell-based; details: two to five-fold elevated levels of Purα in stably transfected cell lines
Text: Cells were released from a double thymidine block, which arrests cells upon entry to S phase, into normal growth medium. Samples were subjected to fluorescence-activated cell sorting to determine cellular DNA content.
Stably transfected or co-transfected pools and transfected clones are shown on the right.
A pool of ras-transformed cells were stably transfected or co-transfected with the following: (a) pBABE, an empty vector; (b) pBABE+pBK, both empty expression vectors; (c) pBABE+pBKPurα, to over-express Purα; (d) pBABE+pBKPurα^low to express Purα at a level near that of endogenous Purα; (e) pBABE+pBKPurα^high to express Purα at a level nearly 5-fold that of endogenous Purα; (f) pEBV, an empty expression vector (g) pEBVPurα to over-express Purα. 4N indicates completion of DNA synthesis.

NIH3T3 cells = experiment: Purα injected into NIH3T3 cells at cell-cycle transition points; assay type: cell-based
Method: Purα was injected into NIH3T3 cells during various cell-cycle transition points to determine the effects of elevated Purα levels at different phases of the cell cycle. […] In FIG. 2, the clear bar represents dividing cells, the black bar represents non-dividing cells, and the shaded bar represents rapid cell death.

[4] = molecular target: T1, p110^RB, the hypophosphorylated form of Rb (Homo sapiens, UniProt P06400); experiment: GST bead pull-down of Rb, anti-Rb blot; assay type: binding; details: protein on glutathione-agarose beads
T1 construct: In proliferating cells, the Rb protein existed in several states of phosphorylation; endogenous in cells; host or cells: WR2E3 cells (inferred as the source of the extract put on the beads)
T1 sequence (P06400 1-928): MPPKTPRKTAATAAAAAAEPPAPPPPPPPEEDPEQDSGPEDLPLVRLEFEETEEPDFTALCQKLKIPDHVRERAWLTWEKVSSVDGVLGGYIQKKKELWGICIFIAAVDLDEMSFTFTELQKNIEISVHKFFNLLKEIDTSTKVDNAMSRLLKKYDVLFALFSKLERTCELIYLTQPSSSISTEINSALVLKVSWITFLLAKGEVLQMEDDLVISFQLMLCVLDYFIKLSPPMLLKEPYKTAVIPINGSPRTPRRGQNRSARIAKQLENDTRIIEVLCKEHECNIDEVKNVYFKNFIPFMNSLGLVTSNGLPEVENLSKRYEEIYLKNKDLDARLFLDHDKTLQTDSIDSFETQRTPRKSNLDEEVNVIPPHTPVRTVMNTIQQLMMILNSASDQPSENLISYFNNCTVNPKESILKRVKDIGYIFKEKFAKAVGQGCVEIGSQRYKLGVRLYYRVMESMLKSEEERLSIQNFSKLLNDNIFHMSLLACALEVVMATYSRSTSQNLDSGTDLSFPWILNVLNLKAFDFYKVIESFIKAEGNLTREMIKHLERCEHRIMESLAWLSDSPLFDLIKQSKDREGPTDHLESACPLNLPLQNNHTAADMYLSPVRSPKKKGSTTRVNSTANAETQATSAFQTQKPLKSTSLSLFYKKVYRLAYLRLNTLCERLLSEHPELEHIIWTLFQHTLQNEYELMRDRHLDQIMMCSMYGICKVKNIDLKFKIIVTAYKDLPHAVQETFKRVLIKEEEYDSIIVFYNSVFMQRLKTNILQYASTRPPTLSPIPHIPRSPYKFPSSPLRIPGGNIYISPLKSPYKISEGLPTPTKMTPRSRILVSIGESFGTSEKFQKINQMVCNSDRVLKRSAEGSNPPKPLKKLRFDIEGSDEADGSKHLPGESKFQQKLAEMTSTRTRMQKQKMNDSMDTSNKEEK
Method: Rb was detected in extracts of monkey CV-1 cells complexed with Purα. These complexes can be immunoextracted from cell lysates using monoclonal antibodies to either Purα or Rb.
Proteins expressed in bacteria were bound to glutathione-agarose beads. Unfused GST was prepared in the same manner for use as a control. Beads containing equivalent amounts of each protein were used for each lane. Beads were collected, washed, and bound proteins were subjected to electrophoresis. The proteins were then blotted and probed with anti-Rb monoclonal antibody.
In contrast, binding of Rb to control GST alone was nil. IPP represents Rb immunoprecipitated from WR2E3 cells using rabbit polyclonal anti-Rb antibody. In proliferating cells, the Rb protein existed in several states of phosphorylation, the hypophosphorylated state, p110^RB, migrating more rapidly on SDS gels (lane 1).

[5] = tested on: FXS ssDNA (G-rich trinucleotide DNA repeats at FMR1); experiment: Electrophoretic mobility shift assay with FXS ssDNA; assay type: binding
Text: A GE Microspin GST purification module was used to purify GST-tagged Purα and Purβ from bacterial lysate. Polyacrylamide gel electrophoresis with SDS-Page gels and molecular markers were used to verify that GST, Purα, and Purβ were expressed and purified. Expressed proteins were detected using antibodies against Purα and Purβ, including monoclonal mouse anti-Pur antibody developed in Johnson laboratory (clone 10B12) and polyclonal antibody against Purβ (Abcam). Polyacrylamide gel electrophoresis with TBE buffer was used for gel-mobility shift assay. Infrared-labeled oligonucleotides representing G-rich trinucleotide DNA repeats at FMR1 in patients with Fragile X Syndrome (FXS) were custom ordered and are referred to herein as FXS ssDNA. Infrared-labeled oligonucleotide substrates in agarose and polyacrylamide gels were detected through the use of the Odyssey (LICOR) instrumentation and software. […] When Purα and Purβ are combined (FIG. 17), by increasing the amount of Purβ, the DNA is shifted more to the top of the gel. Therefore, there is more binding of the proteins to the DNA. […] In FIG. 19, TZIP enhances the mobility shift of ssDNA FXS in the presence of Purα.

| Molecule | anchorage independent growth [1] | binding of ALS repeat (qualitative) [2] | Kd ([2]; densitometry of DNA concentration course) [nM] | S phase entry and progression [3] | effect on cell cycle / cell fate (NIH3T3 cells; introduction of Purα in G1 phase) | effect on cell cycle / cell fate (NIH3T3 cells; introduction of Purα in later phases, such as G2-M phase) | binding to Rb [4] | binding / mobility shift of ssDNA FXS (qualitative) [5] |
| --- | --- | --- | --- | --- | --- | --- | --- | --- |
| B1 | repressed anchorage independent growth | strongly bind the ALS repeat in low concentrations | 16 | retarded entry into and progression through S phase | arrested cells at the G1-S boundary, causing programmed cell death | arrested, but did not prevent, complete replication of the genome |  |  |
| B2 |  |  |  |  |  |  | bind exclusively to the hypophosphorylated forms of p110^RB |  |
| B3 |  | bound the ALS repeat to a much smaller degree |  |  |  |  |  | does not shift the ssDNA FXS as strongly as Purα |
